B1: FGF7: fibroblast growth factor FGF7 (protein, UniProt P21781 32-194, looked up)
Fibroblast growth factor 7: CNDMTPEQMATNVNCSSPERHTRSYDYMEGGDIRVRRLFCRTQWYLRIDKRGKVKGTQEMKNNYNIMEIRTVAVGIVAIKGVESEFYLAMNKEGKLYAKKECNEDCNFKELILENHYNTYASAKWTHNGGEMFVALNQKGIPVRGKKTKKEQKTAHFLPMAIT
B2: BMP4: growth factor BMP4, neuronal fate suppressor, medium supplement (protein, UniProt P12644 293-408, looked up)
Bone morphogenetic protein 4: SPKHHSQRARKKNKNCRRHSLYVDFSDVGWNDWIVAPPGYQAFYCHGDCPFPLADHLNSTNHAIVQTLVNSVNSSIPKACCVPTELSAISMLYLDEYDKVVLKNYQEMVVEGCGCR

Assays:
human ESC/iPSCs = test: iKCs derivation from human ESC/iPSCs: critical medium components; type: cell-based; details: Passage 0, Day 14 differentiation culture, anti-K14 immunofluorescence
[1] = tested on: primary human keratinocytes; test: Long-term culture of primary keratinocytes (population doubling); details: niacinamide 3 mM, BMP4 0.5 ng/mL as components of KCM4
Description: Keratinocytes were maintained in the indicated medium and passaged every 4-5 days (at ˜80% confluence). For passage, keratinocytes were incubated with a 0.1% Trypsin in Versene solution at 37° C. for 5 minutes. The trypsin was neutralized with 0.5 mg/mL of trypsin inhibitor. The cells were centrifuged at 1200 rpm for 4 min. Cells were counted with a Cellometer (Nexcelom). Cells (25,000-50,000) were plated per well of 6-well plates in the indicated keratinocyte culture media. Media was changed every other day.
Cells were maintained by serial passage at ˜80% confluence until senescence. The total number of cell doublings for each passage was calculated using the following formula: 3.32 log(N/No). Where No refers to the number of cells plated at the beginning of each passage and N is the number of cells recovered at the end of each passage.

Molecule | K14 expression with different fibroblast growth factors (human ESC/iPSCs) | life span and stemness of primary keratinocytes in culture [1] | life span and stemness of primary keratinocytes in culture ([1]; listed as BMP-4)
B1 | did not promote homogeneous K14 expression | – | –
B2 | – | maintained the stemness of primary keratinocyte stem cells in culture | extend the life span of primary keratinocytes in culture

From patent US10047341B2, “Generation of keratinocytes from pluripotent stem cells and maintenance of keratinocyte cultures” (FUJIFILM Cellular Dynamics, Inc., priority 2014, dated 2018)
